Results on two molecules are retold here after US20210371527A1 (IMAGINAB, published 2021).

The target of this experiment is T1, human CD4 on HPB-ALL cells (human, UniProt P01730 26-458).
T1 construct: The assay used HPB-ALL cells; no signal peptide limits are stated; also called HPB-ALL cells (human T cell leukemia, DSMZ ACC 483); HPC-ALL
The experiment can be described thus: flow cytometry on HPB-ALL cells. (Flow cytometry measures light scatter and fluorescence of single cells or particles in a stream.)

B1: deferoxamine conjugated humanized IAB41-1 minibody (other)
chain: EIVLTQSPATLSLSPGERATLSCSARSSVSYLYWYQQKPGQAPRLLIYDTSNLASGIPDRFSGSGSGTDFTLTISRLEPEDAAVYYCQQWSDYPLTFGGGTKLEIKGSTSGGGSGGGSGGGGSSQVQLVQSGAEVKKPGASVKVSCKASGYSFANYWMHWVRQAPGQRLEWIGALYPGNVDTTYNQKFQGRVTITRDTSASTAYMELSSLRSEDTAVYYCTRMGTTLEAPLDYWGQGTLVTVSSEPKSSDKTHTCPPCPPCGGGSSGGGSGGQPREPQVYTLPPSREEMTKNQVSLTCLVKGFYPSDIAVEWESNGQPENNYKTTPPVLDSDGSFFLYSKLTVDKSRWQQGNVFSCSVMHEALHNHYTQKSLSLSPG
modifications: deferoxamine (Df) chelator conjugated; sites of conjugation not stated
notes: also called Df-Hu-IAB41-1
B1: the binding result is reported as “binds”.

B2: humanized IAB41-1 minibody (other)
chain: EIVLTQSPATLSLSPGERATLSCSARSSVSYLYWYQQKPGQAPRLLIYDTSNLASGIPDRFSGSGSGTDFTLTISRLEPEDAAVYYCQQWSDYPLTFGGGTKLEIKGSTSGGGSGGGSGGGGSSQVQLVQSGAEVKKPGASVKVSCKASGYSFANYWMHWVRQAPGQRLEWIGALYPGNVDTTYNQKFQGRVTITRDTSASTAYMELSSLRSEDTAVYYCTRMGTTLEAPLDYWGQGTLVTVSSEPKSSDKTHTCPPCPPCGGGSSGGGSGGQPREPQVYTLPPSREEMTKNQVSLTCLVKGFYPSDIAVEWESNGQPENNYKTTPPVLDSDGSFFLYSKLTVDKSRWQQGNVFSCSVMHEALHNHYTQKSLSLSPG
notes: also called Hu-IAB41-1; Construct 41-1
As for B2, the binding result is given as “binds”.
